Substrate: NC(=O)C[C@H](N)C(=O)O
Assay: ammonia release with Nessler's reagent, A450; Michaelis-Menten plot
Type: biochemical, Pyrococcus yayanosii
Conditions: 50 mM Tris-HCl pH 8.0, 95 °C, substrate range 0.05-2.0 mM

B1: P. yayanosii CH1 L-asparaginase (pyasnase) (Pyrococcus yayanosii CH1) (protein)
chain: MRLLILGMGGTIASVPSEEGYESSLSVEEILRLAGLELKWEVEARDLLNIDSTLIQPEDWVLLAETVFEAFEEFDGVVITHGTDTLAYTASMLSFMVRNPPVPIVLTGAMRPITEPGSDAPRNLWTALRFAIEGVPGVYVAFMDKVMLGVRVSKVRAVGLNAFQSINYPDIAYVKGNRIHWNAKPPKLEGEPVLDTRHEPRVLVLRLVPGMEGDVLEAALELGYRGIVLEGYGVGGIPYRGRDLLDVVRRVATEIPVVMTTQTLYDGVDLTKYKVGRKALEVGVIPAGDMTKEATITKLMWILGHTRDVGEVRRLMLTNMVGEIGKSA
notes: C-terminal His-tag (in primer R1); codon-optimised synthetic gene, pMA5, Bacillus subtilis 168; homodimer (homology model)
With B1 the Km was 6.5 mM.

Reference: publication PMC5962637, “Simultaneous cell disruption and semi-quantitative activity assays for high-throughput screening of thermostable L-asparaginases” (Scientific Reports, 2018)
